For one assay, the system named is cbz-FAF[^125I]Y-NH2. Put plainly: Degradation of cbz-FAF[125I]Y-NH2 by defined proteases and C6 cell fractions. It is filed as biochemical. The note with it: 37° C., pH 7.4. Here is the method:
Preparation of plasma membrane from C6 cells was performed according to (Raper and Kapfhammer, 1990, Neuron 2:21-29) with some modifications. Briefly, C6 cells were cultured in 30 culture dishes (13.5 cm diameter). At confluency, the culture medium was removed and the cell layers were frozen to −20° C. All subsequent manipulations were performed at 4° C.: cell debris were collected using a rubber policeman in 100 ml CMF-Hank's and further homogenized by 10 strokes in a Dounce homogenizer with teflon plunger. A small aliquot of this suspension was stored at −20° C. and used later (homogenate-fraction). The nuclear pellet was obtained by low speed centrifugation (10 min, 1000×g) in a Sorvall S22 rotor and stored at […] A crude vesicular fraction was obtained by centrifugating the nuclear supernatant in a Sorvall S22 rotor (20,000×g, 30 min), and was resuspended in 10 ml CMF-Hank's. After adding 20 ml 2.25 M sucrose in CMF-Hank's, this suspension was loaded on 4×8 ml 2.25 M sucrose in CMF-Hank's and centrifuged at 80,000×g for 1 h in a Beckman SW28 motor. […]
(§1) For the quantification of the activity, the reaction was stopped by addition of an equal volume of chloroform. […] Activity is expressed as % radioactivity contained in the aqueous phase. 100% is the sum of the radioactivity of both phases.

The test system of assay [1] is C6 plasma membrane associated metalloendoprotease. Put plainly: Enzyme assay: cbz-FAF[125I]Y-NH2 degradation by C6 plasma membranes with protease blockers. Type of assay: biochemical, rat. The protocol: For most experiments, 70-80% confluent cell layers (1 cm^2 wells, 100 μl MEMα) or 2-5 μg C6 plasma membrane (100 μl MEMα) were used. […] If indicated, cell layers or plasma membrane suspensions were preincubated for 30 min with protease blockers or peptides. NEM or iodacetamide incubations of plasma membranes were performed at pH 8.5. The incubation was stopped by loading a 10 μl aliquot of the incubation medium on a thin layer chromatography plate (10 cm height, Kieselgel 60 F254, MERCK, Germany) and air dried. […] Plates were then air dried and exposed on Kodak X-OMAT films (NY, USA) with an intensifying screen. To identify the degradation products on thin-layer chromatography, we run reference peptides under the same conditions.
as §1

The subject of another assay is C6 cells. Put plainly: C6 cell spreading on CNS myelin or PLYS with protease inhibitors. Type of assay: cell-based, rat. To be noted: C6 cells; spreading on PLYS minus spreading on CNS myelin. The protocol: Rat C6, mouse NIH 3T3 and B16 cells were cultured in Dulbecco's modified Eagle's medium (DMEM) supplemented with 10% fetal calf serum (FCS), usually to maximally 70-80% confluency. Cells were harvested with a short trypsin treatment (0.1% in Ca^2+/Mg^2+-free Hank's medium for 90 seconds) stopped by addition of FCS in excess, collected by centrifugation. Cells were resuspended in either DMEM/FCS or defined serum-free medium (MEM) and used for experiments. […]
Myelin from rat spinal cord (CNS) or sciatic nerve (PNS) purified on a discontinuous sucrose gradient as described in Section 6.1.5., was dried overnight onto PLYS coated wells (20 μg protein/well of 100 mm^2 surface). […] Experiments were scored at different time points using a phase contrast microscope equipped with a photocamera. Quantifications were done using a surface integration program; three arbitrary fields were photographed for each well at a magnitude of 80×, at least 25 cells per picture were measured. […] Results are expressed as μ^2 of projected cell surface, or as degree, which was calculated by subtracting from the projected surface value of a spreading cell, the surface value of a completely spheric cell.

The results in this text go back to patent US6960559B1, “Neurite growth regulatory factors” (University of Zurich, priority 1988, dated 2005).

Values joined by “and” are separate entries in the source; they are usually repeats but may differ in a detail not shown here. Equal values may be shown once.

B1: tPA: tissue-type plasminogen activator (protein, UniProt P00750 36-562, looked up)
Tissue-type plasminogen …: SYQVICRDEKTQMIYQQHQSWLRPVLRSNRVEYCWCNSGRAQCHSVPVKSCSEPRCFNGGTCQQALYFSDFVCQCPEGFAGKCCEIDTRATCYEDQGISYRGTWSTAESGAECTNWNSSALAQKPYSGRRPDAIRLGLGNHNYCRNPDRDSKPWCYVFKAGKYSSEFCSTPACSEGNSDCYFGNGSAYRGTHSLTESGASCLPWNSMILIGKVYTAQNPSAQALGLGKHNYCRNPDGDAKPWCHVLKNRRLTWEYCDVPSCSTCGLRQYSQPQFRIKGGLFADIASHPWQAAIFAKHRRSPGERFLCGGILISSCWILSAAHCFQERFPPHHLTVILGRTYRVVPGEEEQKFEVEKYIVHKEFDDDTYDNDIALLQLKSDSSRCAQESSVVRTVCLPPADLQLPDWTECELSGYGKHEALSPFYSERLKEAHVRLYPSSRCTSQHLLNRTVTDNMLCAGDTRSGGPQANLHDACQGDSGGPLVCLNDGRMTLVGIISWGLGCGQKDVPGVYTKVTNYLDWIRDNMRP
As to B1, in the assay on cbz-FAF[^125I]Y-NH2, the “Amount necessary to degrade 50% of substrate in 30 min” value was greater than 100 µg.

B2: papain: cysteine protease (protein, UniProt P00784 134-345, looked up)
Papain: IPEYVDWRQKGAVTPVKNQGSCGSCWAFSAVVTIEGIIKIRTGNLNEYSEQELLDCDRRSYGCNGGYPWSALQLVAQYGIHYRNTYPYEGVQRYCRSREKGPYAAKTDGVRQVQPYNEGALLYSIANQPVSVVLEAAGKDFQLYRGGIFVGPCGNKVDHAVAAVGYGPNYILIKNSWGTGWGENGYIRIKRGTGNSYGVCGLYTSSFYPVKN
Regarding B2, in the assay with cbz-FAF[^125I]Y-NH2, the “Amount necessary to degrade 50% of substrate in 30 min” value is 2 µg and 2.0 µg.

B3: soybean trypsin inhibitor: serine protease blocker (protein, UniProt P01070 25-205, looked up)
Trypsin inhibitor A: DFVLDNEGNPLENGGTYYILSDITAFGGIRAAPTGNERCPLTVVQSRNELDKGIGTIISSPYRIRFIAEGHPLSLKFDSFAVIMLCVGIPTEWSVVEDLPEGPAVKIGENKDAMDGWFRLERVSDDEFNNYKLVFCPQQAEDDKCGDIGISIDHDDGTRRLVVSKNKPLVVQFQKLDKESL
Turning to B3, the “Effect on cbz-FAF[^125I]Y-NH2 degradation by C6 plasma membranes, in words” value in assay [1] was “had no effect”.

B4: 2-macroglobulin: general protease inhibitor (protein, UniProt P01023 24-1474, looked up)
Alpha-2-macroglobulin: SVSGKPQYMVLVPSLLHTETTEKGCVLLSYLNETVTVSASLESVRGNRSLFTDLEAENDVLHCVAFAVPKSSSNEEVMFLTVQVKGPTQEFKKRTTVMVKNEDSLVFVQTDKSIYKPGQTVKFRVVSMDENFHPLNELIPLVYIQDPKGNRIAQWQSFQLEGGLKQFSFPLSSEPFQGSYKVVVQKKSGGRTEHPFTVEEFVLPKFEVQVTVPKIITILEEEMNVSVCGLYTYGKPVPGHVTVSICRKYSDASDCHGEDSQAFCEKFSGQLNSHGCFYQQVKTKVFQLKRKEYEMKLHTEAQIQEEGTVVELTGRQSSEITRTITKLSFVKVDSHFRQGIPFFGQVRLVDGKGVPIPNKVIFIRGNEANYYSNATTDEHGLVQFSINTTNVMGTSLTVRVNYKDRSPCYGYQWVSEEHEEAHHTAYLVFSPSKSFVHLEPMSHELPCGHTQTVQAHYILNGGTLLGLKKLSFYYLIMAKGGIVRTGTHGLLVKQEDMKGHFSISIPVKSDIAPVARLLIYAVLPTGDVIGDSAKYDVENCLANKVDLSFSPSQSLPASHAHLRVTAAPQSVCALRAVDQSVLLMKPDAELSASSVYNLLPEKDLTGFPGPLNDQDNEDCINRHNVYINGITYTPVSSTNEKDMYSFLEDMGLKAFTNSKIRKPKMCPQLQQYEMHGPEGLRVGFYESDVMGRGHARLVHVEEPHTETVRKYFPETWIWDLVVVNSAGVAEVGVTVPDTITEWKAGAFCLSEDAGLGISSTASLRAFQPFFVELTMPYSVIRGEAFTLKATVLNYLPKCIRVSVQLEASPAFLAVPVEKEQAPHCICANGRQTVSWAVTPKSLGNVNFTVSAEALESQELCGTEVPSVPEHGRKDTVIKPLLVEPEGLEKETTFNSLLCPSGGEVSEELSLKLPPNVVEESARASVSVLGDILGSAMQNTQNLLQMPYGCGEQNMVLFAPNIYVLDYLNETQQLTPEIKSKAIGYLNTGYQRQLNYKHYDGSYSTFGERYGRNQGNTWLTAFVLKTFAQARAYIFIDEAHITQALIWLSQRQKDNGCFRSSGSLLNNAIKGGVEDEVTLSAYITIALLEIPLTVTHPVVRNALFCLESAWKTAQEGDHGSHVYTKALLAYAFALAGNQDKRKEVLKSLNEEAVKKDNSVHWERPQKPKAPVGHFYEPQAPSAEVEMTSYVLLAYLTAQPAPTSEDLTSATNIVKWITKQQNAQGGFSSTQDTVVALHALSKYGAATFTRTGKAAQVTIQSSGTFSSKFQVDNNNRLLLQQVSLPELPGEYSMKVTGEGCVYLQTSLKYNILPEKEEFPFALGVQTLPQTCDEPKAHTSFQISLSVSYTGSRSASNMAIVDVKMVSGFIPLKPTVKMLERSNHVSRTEVSSNHVLIYLDKVSNQTLSLFFTVLQDVPVRDLKPAIVKVYDYYETDEFAIAEYNAPCSKDLGNA
For the molecule B4, the “Inhibition on CNS (%)” value in the assay with C6 cells is 18%.
